Test results as given in patent publication US20160152995A1, “METHODS AND COMPOSITIONS TO IMPROVE THE SPREAD OF CHEMICAL SIGNALS IN PLANTS” (PIONEER HI-BRED INTERNATIONAL, INC., priority 2013, published 2016).
Residue numbers refer to the chain shown, from its start.

B1: CsL4.2-15: top CsR hit of library CsL4.2 (protein)
chain: MARLDKSKVINSALELLNEVGIEGLTTRKLAQKLGVEQPTLYWHVKNKRALLDALAIEMHDRHQTHYLPLEGESWQDFLRNFAKSMRRALLSHRDGAKVSLGTRWTEQQYETAENMLAFLTQQGFSLENALYATDAVRVFTLGAVLLDQEQQVAKEERETPTTDSMPPLLRQAWELKVHQGAEPAFLFGLELIIAGLEKQLKRESGS
modifications: Sulfonylurea responsive repressor
B2: CsL4.2-22 (protein)
chain: MARLDKSKVINSALELLNEVGIEGLTTRKLAQKLGVEQPTLYWHVKNKRALLDALAIEMHDRHQTHYLPLEGESWQDFLRNFAKSMRRALLSHRDGAKIALGTRWTEQQYETAENMLAFLTQQGFSLENALYATDAVRVFTLGAVLLDQEQQVAKEERETPTPDSMPPLLRQAWELKDHQGAEPAFLFGLELIIAGLEKQLKRESGSHHHHHH
modifications: Sulfonylurea responsive repressor
B3: CsL4.2-16 (protein)
chain: B2 chain with H60M, F78Y, R88C, I99V, A100S, Q151G, K155N, S165R, D178V
modifications: Sulfonylurea responsive repressor
B4: CsL4.2-08 (protein)
chain: B2 chain with H60M, I99V, Q123H, D178V, H210Q
modifications: Sulfonylurea responsive repressor
B5: CsL4.2-07 (protein)
chain: B2 chain with F78Y, R88C, D178V
modifications: Sulfonylurea responsive repressor
B6: L8-3A04 (protein)
chain: MARLDKSKVINSALELLNEVGIEGLTTRKLAQKLGVEQPTLYWHVKNKRALLDALAIEMMDRHQTHYSPLEGESWQDFLRNNAKSCRRALLSHRDGAKVCLGTRWTEQQYESAENMLAFLTQQGFSLENALYAVSAVRVFTLGAVLFDQESQVAKEERETPTTDSMPPLLRQAWELKDHQGAEPAFLFGLELIIRGLEKQLKRECGS
modifications: Sulfonylurea responsive repressor
B7: L8-3F08 (protein)
chain: B6 chain with R88N, C100V, L131M, V134L, S135E, V137A, V139I, A144W, R203S, C205S
modifications: Sulfonylurea responsive repressor
B8: L8-3B03 (protein)
chain: B6 chain with S68L, R203S, C205S
modifications: Sulfonylurea responsive repressor
B9: L8-3A07 (protein)
chain: B6 chain with C86M, R88C, A144W, R195A, C205S
modifications: Sulfonylurea responsive repressor
B10: L8-3A06 (protein)
chain: B6 chain with S68L, R88N, R195S, C205S
modifications: Sulfonylurea responsive repressor
B11: L8-1A06 (protein)
chain: B6 chain with L90V, R195A, C205S
modifications: Sulfonylurea responsive repressor
B12: L8-1A03 (protein)
chain: B6 chain with R88N, V134L, S135D, R195A, C205S
modifications: Sulfonylurea responsive repressor
B13: L8-1E04 (protein)
chain: B6 chain with S68L, R88N, F147Y, R203A, C205S
modifications: Sulfonylurea responsive repressor
B14: L8-2H01 (protein)
chain: B6 chain with V134L, S135E, C205S
modifications: Sulfonylurea responsive repressor
B15: L8-1A05 (protein)
chain: B6 chain with S135D, R195A, R203A, C205S
modifications: Sulfonylurea responsive repressor

How the values were obtained:
E. coli assay strain Km3 [1] = assay: Liquid B-galactosidase assays of chlorsulfuron repressor hits (induction and repression); conditions: CsL4.2 hits; for IND = induction with 20 ppb CS (B-galactosidase) / REP = repression in absence of inducer (B-galactosidase): liquid B-galactosidase assay; for REP = repression in absence of inducer (B-galactosidase): no inducer; for F. IND = fold induction (IND/REP) (B-galactosidase): 20 ppb Cs vs no inducer
Description: In order to create new diversity for shuffling the top clone from CsL3 was subjected to error prone PCR mutagenesis using Mutazyme (Stratagene). The mutated PCR product encoding the CsR ligand binding domain was inserted into library expression vector pVER7334 as a Sac1 to Asc1 fragment, transformed into library strain Km3 and plated onto LB+40 ug/ml Kanamycin and 50 ug/ml Carbenecillin. Approximately 10,000 colonies were then replica plated onto M9 Xgal assay medium +/−20 ppb Cs. Putative hits were then re-arrayed and replica plated onto the same assay medium. Performance was gauged by the level of blue colony color after 24 hrs incubation on inducer (induction) and 72 hrs incubation without inducer (repression). The top hits were then subjected to liquid B-galactosidase assays for quantitative assessment (Table 21).
Seventh round library CsL4.2 was designed based on the best diversity from CsL3 and CsL3-MTZ library screens (Table 14). The library was assembled with oligonucleotides shown below in Table 22. The first and last primers were used as rescue primers. CsL4.2 included a C-terminal 6×His-tag extension to facilitate protein purification. The library was assembled and cloned into vector pVER7334 Sac1 to Asc1, transformed into library assay strain Km3 and plated onto LB+40 ug/m1 Kanamycin and 50 ug/ml carbenecillin. Approximately 8,000 colonies were re-arrayed into 384-well format and replica plated onto M9 Xgal assay medium +/−2 ppb Cs. Putative hits were re-arrayed in 96-well format onto the same media for re-testing. Confirmed hits were then tested for induction and repression aspects in liquid culture using B-galactosidase assays.
Mutagenesis reactions were transformed into E. coli assay strain Km3 and plated onto LB+50 ug/ml Carbenecillin. Colonies were then re-arrayed into 384 well format and replica plated onto M9 Xgal assay medium +/−5 ppb Chlorsulfuron. Putative hits were then re-arrayed and analyzed by B-galactosidase assays relative to the parent clones (FIG. 10).

E. coli assay strain Km3 [2] = type: cell-based; conditions: library L8 hits, M9 Xgal colony assay; for IND = induction with 200 ppb Cs at 24 hrs (blue colony color intensity thru ImageJ analysis): 200 ppb Chlorsulfuron; for F. IND = fold induction: induction with 200 ppb Cs at 24 hrs/repression at 48 hrs: ratio IND (200 ppb Cs, 24 hrs) / REP (48 hrs)
Description: Library L6 was assembled, rescued, ligated into pVER7314, transformed into E. coli KM3 and plated out onto LB carbenicillin/kanamycin, and carbenicillin only control media as before. Library plates were then picked into 42 384-well microtiter plates (˜16,000 clones) containing 60 μl LB carbenicillin (Cb) broth per well. After overnight growth at 37° C. the cultures were stamped onto M9 assay plates containing no inducer, 0.2 ppm, and 2.0 ppm chlorsulfuron as test inducer. Following incubation at 30° C. for ˜48 hrs, putative hits responding to chlorsulfuron treatment as determined by increased blue colony color were re-arrayed into six 96-well microtiter plates and used to stamp a fresh set of M9 assay plates to confirm the above results. For a more detailed analysis of the relative induction by chlorsulfuron, digital photographs were taken of the plates after various time points of incubation at 30° C. and colony color intensity measured using the digital image analysis freeware program ImageJ (Rasband, US National Institutes of Health, Bethesda, Md., USA, rsb.info.nih.gov/ij/, 1997-2007). […] From this analysis sequence-activity relationships were derived. […] Briefly, C at position 100, and Q at positions 108 and 109 strongly correlated with activation, while R at position 138, L at position 170, and A or G at position 173 were highly preferred in clones with the lowest background activity. […] This information will aid in the design of further libraries to improve responsiveness to chlorsulfuron.
Library L8 construction and screening. Fourth round shuffling incorporated the best diversity from Rd3 shuffling (BB1860) as well as computational diversity (Table 14). As diversity was very high the library oligo mix was spiked into the parental hit variant oligo mix (5, 10, and 25% mixes) to titer down the number of residue changes per clone. In addition, to varying residues for Cs activity, seven residues (C68, C86, C88, C121, C144, C195, and C203) were varied with TetR family phylogenetic substitutions in an attempt to reduce the number of cysteine residues in the repressor. The PCR assembled libraries were cloned Sac1/Asc1 into pVER7334. This plasmid encodes PBAD promoter controlled expression of a plant optimized TetR DNA binding domain fused to the wt ligand binding domain of TetR(B) encoded by native Tn10 sequence on a Sac1 to Asc1 fragment. Approximately 15,000 clones were screened for blue colony color on the M9 Xgal assay plates +/−200 ppb Chlorsulfuron (Cs). Clones were ranked by ratio of color with inducer after 24 hrs incubation over colony color without inducer for 48 hrs of incubation. The sequence trend in the overall larger population of hits (first re-array) was that L55, R104, W105 and L170 were maintained while the C144A substitution was highly preferred. Sequence trends within the hit population were then noted with respect to repression, induction and fold induction (which corrects for leakiness).
Mutagenesis reactions were transformed into library strain Km3 and 96 colonies tested for substitution by DNA sequence analysis. Substitutions representing each possible residue at each position were then re-arrayed in triplicate onto M9 X-gal assay plates with 0, 20 and 200 ppb Chlorsulfuron. Plates were incubated at 37° C. for 24 and 48 hrs prior to imaging. Residue substitutions were then ranked by activation (emphasis on 20 ppb Cs) and repression characteristics (emphasis on 48 hr time point). The mutation with the greatest impact on activity was substitution of residue N82 to phenylalanine or tyrosine. […] All other preferred substitutions shown in Table 18 either improved repression or improved sensitivity to inducer without compromising repressor function. Certain residues were indispensible to function such as R104, W105, and W174 as substitutions were not allowed. Other residue positions such as R138 and K177 were also flagged as critical since functional substitutions were extremely limited. […]

Molecule	IND = induction with 20 ppb CS (B-galactosidase) (E. coli assay strain Km3 [1])	REP = repression in absence of inducer (B-galactosidase) (E. coli assay strain Km3 [1])	F. IND = fold induction (IND/REP) (B-galactosidase) (E. coli assay strain Km3 [1])	IND = induction with 200 ppb Cs at 24 hrs (blue colony color intensity thru ImageJ analysis) (E. coli assay strain Km3 [2])	F. IND = fold induction: induction with 200 ppb Cs at 24 hrs/repression at 48 hrs (E. coli assay strain Km3 [2])	REP = repression measured without inducer after 48 hrs (blue colony color intensity thru ImageJ analysis) (E. coli assay strain Km3 [2])
B1	4.0	0.2	–	–	–	–
B2	5.4	0.3	20.8	–	–	–
B3	3.8	0.3	15.2	–	–	–
B4	10.7	0.7	–	–	–	–
B5	6.5	0.3	18.9	–	–	–
B6	–	–	–	0.5	3.3	0.1
B7	–	–	–	1.5	2.7	0.6
B8	–	–	–	0.6	2.4	0.3
B9	–	–	–	0.7	2.9	0.2
B10	–	–	–	0.3	2.6	0.1
B11	–	–	–	2.1	2.7	0.8
B12	–	–	–	8.6	3.1	2.8
B13	–	–	–	1.5	2.5	0.6
B14	–	–	–	12.9	2.7	4.8
B15	–	–	–	10.8	2.5	4.4
